# Measured values from article PMC10382551, “Affinity-matured homotypic interactions induce spectrum of PfCSP structures that influence protection from malaria infection” (Nature Communications, 2023).
# Ends that are not written are not given here.
# Assays:
# Experiment in all cases: BLI
# Settings in all cases: both partners purified
# NPNA4 peptide [1] = target: T1, NPNA4 peptide (Plasmodium falciparum (isolate 3D7)., not fully specified)
# T1 construct: source: synthetic peptide (InnoPep Inc)
# T1 chain: NPNANPNANPNANPNA
# NPNA8 peptide [2] = target: T2, NPNA8 peptide (Plasmodium falciparum (isolate 3D7)., not fully specified)
# T2 construct: source: synthetic peptide (InnoPep Inc)
# T2 chain: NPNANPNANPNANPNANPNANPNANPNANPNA
# NPNA8 peptide [3] = target: T3, NPNA8 peptide (Plasmodium falciparum (isolate 3D7)., not fully specified)
# T3 construct: source: synthetic peptide (InnoPep Inc, purity >=97%)
# T3 chain: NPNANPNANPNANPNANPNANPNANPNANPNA
# NPNA4 peptide [4] = target: T4, NPNA4 peptide (Plasmodium falciparum (isolate 3D7)., not fully specified)
# T4 construct: source: synthetic peptide (InnoPep Inc, purity >=97%)
# T4 chain: NPNANPNANPNANPNA
binder,measurement,setting,value
"337 Fab (Fab, V domains shown, also called mAb 337; source: ExpiCHO cells, purified (mAb Select PrismA or Capture Select, SEC)) VH: QVQLVESGGGVVQPGRSLRLSCAASGFSFSTYGMHWVRQAPGKGLEWVALIWHDGSKKFYSESVRGRFTISRDNSMDTLYLQMSSLRAEDTAVYYCARDGADYFDSTGGAFDIWGQGTMVIVSS VL: EIVMTQSPATLSVSPGERATLSCRASQSVSSNLAWYQQKPGQAPRLLIYGASTRATGIPARFSGSGSGTEFTLTISSLQSEDFATYYCQQYKTWWTFGQGTKVEIK",Kd,NPNA4 peptide [1],0.0369 µM
same,koff,NPNA4 peptide [1],0.007 s⁻¹
same,kon,NPNA4 peptide [1],130000 M⁻¹ s⁻¹
same,Kd,NPNA8 peptide [2],0.0394 µM
same,koff,NPNA8 peptide [2],0.0035 s⁻¹
same,kon,NPNA8 peptide [2],66000 M⁻¹ s⁻¹
"337 Fab (Fab, V domains shown, source: ExpiCHO cells, purified (mAb Select PrismA or Capture Select, SEC)) VH: QVQLVESGGGVVQPGRSLRLSCAASGFSFSTYGMHWVRQAPGKGLEWVALIWHDGSKKFYSESVRGRFTISRDNSMDTLYLQMSSLRAEDTAVYYCARDGADYFDSTGGAFDIWGQGTMVIVSS VL: EIVMTQSPATLSVSPGERATLSCRASQSVSSNLAWYQQKPGQAPRLLIYGASTRATGIPARFSGSGSGTEFTLTISSLQSEDFATYYCQQYKTWWTFGQGTKVEIK",Kd,NPNA8 peptide [3],0.0394 µM
same,Kd,NPNA4 peptide [4],0.0369 µM
"334 Fab (Fab, V domains shown, also called mAb 334; source: ExpiCHO cells, purified (mAb Select PrismA or Capture Select, SEC)) VH: QVQLVESGGGVVQPGRSLTLSCAASGFTFSNYGMHWVRQTPGKGLAWVAIIWYDGSKTYYEDSVKGRFTISRDNSKNTLYLQMNSLRVDDTAVYYCARVRHSSSRHGSAFDLWGQGTLVTVSS VL: VIQMTQSPSTLSASVGDRVTITCRASQSVSTWLAWYQQKPGQGPKLLIYEASSLESGVPSRFSGSGSGTEFTLTISSLQPDDFATYYCQQYNSYSFWTFGQGTKVEIK",Kd,NPNA4 peptide [1],0.0499 µM
same,koff,NPNA4 peptide [1],0.0021 s⁻¹
same,kon,NPNA4 peptide [1],53000 M⁻¹ s⁻¹
same,Kd,NPNA8 peptide [2],0.0224 µM
same,koff,NPNA8 peptide [2],0.0013 s⁻¹
same,kon,NPNA8 peptide [2],52000 M⁻¹ s⁻¹
"334 Fab (Fab, V domains shown, source: ExpiCHO cells, purified (mAb Select PrismA or Capture Select, SEC)) VH: QVQLVESGGGVVQPGRSLTLSCAASGFTFSNYGMHWVRQTPGKGLAWVAIIWYDGSKTYYEDSVKGRFTISRDNSKNTLYLQMNSLRVDDTAVYYCARVRHSSSRHGSAFDLWGQGTLVTVSS VL: VIQMTQSPSTLSASVGDRVTITCRASQSVSTWLAWYQQKPGQGPKLLIYEASSLESGVPSRFSGSGSGTEFTLTISSLQPDDFATYYCQQYNSYSFWTFGQGTKVEIK",Kd,NPNA8 peptide [3],0.0224 µM
same,Kd,NPNA4 peptide [4],0.0499 µM
"311 Fab (Fab, V domains shown, also called mAb 311; source: ExpiCHO cells, purified (mAb Select PrismA or Capture Select, SEC)) VH: QVQLVESGGGVVPPGRSLRLSCATSGFTFSNYGMHWVRQAPGKGLEWVAIIWYDGSRNFYAASVEGRFTISRDNSKNTLYLQMNSLRVEDTAVYYCARAAYYDTSGYGDYWGQGTLVTVSS VL: QSVLTQPPSVSGAPGQTVTISCTGGSSNIGAGYDVHWYQQLPGTAPKLLIYGNINRPSGVPDRFSGSKSGTSASLAITGLQAEDEADYYCQSYDRRLSGSWVFGGGTKLTVL",Kd,NPNA4 peptide [1],0.212 µM
same,koff,NPNA4 peptide [1],0.0041 s⁻¹
same,kon,NPNA4 peptide [1],27000 M⁻¹ s⁻¹
same,Kd,NPNA8 peptide [2],0.0061 µM
same,koff,NPNA8 peptide [2],0.00025 s⁻¹
same,kon,NPNA8 peptide [2],66000 M⁻¹ s⁻¹
"311R Fab (Fab, V domains shown, also called germline-reverted 311; source: ExpiCHO cells, purified (mAb Select PrismA or Capture Select, SEC)) VH: QVQLVESGGGVVPPGRSLRLSCATSGFTFSSYGMHWVRQAPGKGLEWVAIIWYDGSNKFYAASVKGRFTISRDNSKNTLYLQMNSLRVEDTAVYYCARAAYYDTSGYGDYWGQGTLVTVSS VL: QSVLTQPPSVSGAPGQTVTISCTGGSSNIGAGYDVHWYQQLPGTAPKLLIYGNINRPSGVPDRFSGSKSGTSASLAITGLQAEDEADYYCQSYDSSLSGSWVFGGGTKLTVL",Kd,NPNA4 peptide [1],0.0674 µM
same,koff,NPNA4 peptide [1],0.0088 s⁻¹
same,kon,NPNA4 peptide [1],71000 M⁻¹ s⁻¹
same,Kd,NPNA8 peptide [2],0.211 µM
same,koff,NPNA8 peptide [2],0.0051 s⁻¹
same,kon,NPNA8 peptide [2],71000 M⁻¹ s⁻¹
"311 Fab (Fab, V domains shown, source: ExpiCHO cells, purified (mAb Select PrismA or Capture Select, SEC)) VH: QVQLVESGGGVVPPGRSLRLSCATSGFTFSNYGMHWVRQAPGKGLEWVAIIWYDGSRNFYAASVEGRFTISRDNSKNTLYLQMNSLRVEDTAVYYCARAAYYDTSGYGDYWGQGTLVTVSS VL: QSVLTQPPSVSGAPGQTVTISCTGGSSNIGAGYDVHWYQQLPGTAPKLLIYGNINRPSGVPDRFSGSKSGTSASLAITGLQAEDEADYYCQSYDRRLSGSWVFGGGTKLTVL",Kd,NPNA8 peptide [3],0.00611 µM
same,Kd,NPNA4 peptide [4],0.212 µM
"227 Fab (Fab, V domains shown, also called mAb 227; source: ExpiCHO cells, purified (mAb Select PrismA or Capture Select, SEC)) VH: QVQLVQSGGGVVQPGRSLRLSCVTSGFTFPAFGMHWVRQAPGKGLEWVAVIWYDGSKKYYADSVRGRFTISRDNSRNTLYLQMHSLRAEDTAVYYCARVKNYESSGYSQCLDYWGQGVLVTVAS VL: QSVLTQPPSVSGAPGQRVTISCTGSSSNIGAGYDVHWYQQLPGTAPKLLIYGNGNRPSGVPDRFSGSKSGTSVSLAITGLQAEDEADYYCQSYDSSLSAFVFGTGTKVTVL",Kd,NPNA4 peptide [1],0.0375 µM
same,koff,NPNA4 peptide [1],0.0058 s⁻¹
same,kon,NPNA4 peptide [1],130000 M⁻¹ s⁻¹
same,Kd,NPNA8 peptide [2],0.0803 µM
same,koff,NPNA8 peptide [2],0.0035 s⁻¹
same,kon,NPNA8 peptide [2],40000 M⁻¹ s⁻¹
"227 Fab (Fab, V domains shown, source: ExpiCHO cells, purified (mAb Select PrismA or Capture Select, SEC)) VH: QVQLVQSGGGVVQPGRSLRLSCVTSGFTFPAFGMHWVRQAPGKGLEWVAVIWYDGSKKYYADSVRGRFTISRDNSRNTLYLQMHSLRAEDTAVYYCARVKNYESSGYSQCLDYWGQGVLVTVAS VL: QSVLTQPPSVSGAPGQRVTISCTGSSSNIGAGYDVHWYQQLPGTAPKLLIYGNGNRPSGVPDRFSGSKSGTSVSLAITGLQAEDEADYYCQSYDSSLSAFVFGTGTKVTVL",Kd,NPNA8 peptide [3],0.0237 µM
same,Kd,NPNA4 peptide [4],0.0463 µM
